Experimental findings from patent US7033991 are described below.

Where two headings read alike, the source gives them in different places. No end group written: not given here.

What all share (conditions): modification not given
The target in assay [1] is T1, PC2, P16519.
T1 chain: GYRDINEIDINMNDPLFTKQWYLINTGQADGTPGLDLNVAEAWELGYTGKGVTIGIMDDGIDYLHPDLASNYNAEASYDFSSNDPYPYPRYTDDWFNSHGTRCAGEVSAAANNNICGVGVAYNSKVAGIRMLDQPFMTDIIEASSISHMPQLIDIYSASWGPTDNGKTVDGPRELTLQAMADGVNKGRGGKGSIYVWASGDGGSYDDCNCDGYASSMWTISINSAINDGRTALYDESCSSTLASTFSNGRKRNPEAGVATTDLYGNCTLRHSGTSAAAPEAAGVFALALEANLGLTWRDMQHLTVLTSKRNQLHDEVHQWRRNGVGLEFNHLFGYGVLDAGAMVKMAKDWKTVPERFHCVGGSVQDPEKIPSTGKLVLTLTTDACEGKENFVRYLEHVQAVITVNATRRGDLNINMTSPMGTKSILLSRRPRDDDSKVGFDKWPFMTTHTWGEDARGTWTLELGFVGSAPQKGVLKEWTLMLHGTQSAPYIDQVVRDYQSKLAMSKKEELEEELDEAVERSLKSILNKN

Assay [2] deals with T2, Furin (recombinant, truncated) (mouse), P23188.
T2 chain: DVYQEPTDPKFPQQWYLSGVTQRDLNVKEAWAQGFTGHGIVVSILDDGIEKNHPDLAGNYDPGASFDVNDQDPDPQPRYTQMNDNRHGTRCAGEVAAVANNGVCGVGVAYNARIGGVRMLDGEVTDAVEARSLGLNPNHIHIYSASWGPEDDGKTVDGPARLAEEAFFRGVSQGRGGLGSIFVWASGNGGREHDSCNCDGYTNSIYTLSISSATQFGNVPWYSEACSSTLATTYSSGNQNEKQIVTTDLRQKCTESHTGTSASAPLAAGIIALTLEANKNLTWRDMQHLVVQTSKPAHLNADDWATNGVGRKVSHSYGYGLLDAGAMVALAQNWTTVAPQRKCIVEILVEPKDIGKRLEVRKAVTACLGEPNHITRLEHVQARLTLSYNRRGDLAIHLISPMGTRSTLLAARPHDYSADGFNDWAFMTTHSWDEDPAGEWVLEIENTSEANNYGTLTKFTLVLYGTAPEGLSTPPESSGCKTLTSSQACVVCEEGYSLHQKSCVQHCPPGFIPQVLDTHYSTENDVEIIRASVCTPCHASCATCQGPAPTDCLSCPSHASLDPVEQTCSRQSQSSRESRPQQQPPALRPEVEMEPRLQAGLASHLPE

For assay [3], the target named is T1, PC2, P16519.
Assay [4] deals with T2, Furin (recombinant, truncated) (mouse), ….
Assay [5] has the same target.
The target of assay [6] is T1, PC2, P16519.
Assay [7] addresses T1, PC2, P16519.
Assay [8] addresses T2, Furin (recombinant, truncated) (mouse), ….
For assay [9] the target is unchanged.
Assay [10] addresses T3, PACE4, P29122.
T3 chain: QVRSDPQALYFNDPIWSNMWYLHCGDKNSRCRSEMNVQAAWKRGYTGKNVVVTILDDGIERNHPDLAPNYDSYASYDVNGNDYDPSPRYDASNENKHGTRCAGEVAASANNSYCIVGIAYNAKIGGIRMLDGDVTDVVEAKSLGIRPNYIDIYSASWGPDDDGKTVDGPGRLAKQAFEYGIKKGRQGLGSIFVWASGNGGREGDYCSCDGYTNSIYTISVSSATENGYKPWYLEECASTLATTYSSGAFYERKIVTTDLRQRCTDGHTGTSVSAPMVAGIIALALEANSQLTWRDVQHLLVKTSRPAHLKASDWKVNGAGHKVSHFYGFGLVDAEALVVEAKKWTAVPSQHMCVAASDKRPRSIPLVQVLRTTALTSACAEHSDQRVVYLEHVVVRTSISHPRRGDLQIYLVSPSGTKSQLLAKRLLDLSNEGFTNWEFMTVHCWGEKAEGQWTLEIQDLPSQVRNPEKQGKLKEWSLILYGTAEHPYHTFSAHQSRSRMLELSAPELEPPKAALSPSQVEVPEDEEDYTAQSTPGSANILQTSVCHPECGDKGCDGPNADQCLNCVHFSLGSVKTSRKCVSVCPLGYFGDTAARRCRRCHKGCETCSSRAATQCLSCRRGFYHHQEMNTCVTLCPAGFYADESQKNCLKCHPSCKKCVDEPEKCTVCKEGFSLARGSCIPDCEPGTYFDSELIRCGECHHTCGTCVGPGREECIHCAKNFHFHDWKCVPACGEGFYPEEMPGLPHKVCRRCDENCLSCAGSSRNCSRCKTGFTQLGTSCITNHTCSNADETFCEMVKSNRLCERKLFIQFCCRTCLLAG

In assay [11] the target is T4, PC1, P29120.
T4 chain: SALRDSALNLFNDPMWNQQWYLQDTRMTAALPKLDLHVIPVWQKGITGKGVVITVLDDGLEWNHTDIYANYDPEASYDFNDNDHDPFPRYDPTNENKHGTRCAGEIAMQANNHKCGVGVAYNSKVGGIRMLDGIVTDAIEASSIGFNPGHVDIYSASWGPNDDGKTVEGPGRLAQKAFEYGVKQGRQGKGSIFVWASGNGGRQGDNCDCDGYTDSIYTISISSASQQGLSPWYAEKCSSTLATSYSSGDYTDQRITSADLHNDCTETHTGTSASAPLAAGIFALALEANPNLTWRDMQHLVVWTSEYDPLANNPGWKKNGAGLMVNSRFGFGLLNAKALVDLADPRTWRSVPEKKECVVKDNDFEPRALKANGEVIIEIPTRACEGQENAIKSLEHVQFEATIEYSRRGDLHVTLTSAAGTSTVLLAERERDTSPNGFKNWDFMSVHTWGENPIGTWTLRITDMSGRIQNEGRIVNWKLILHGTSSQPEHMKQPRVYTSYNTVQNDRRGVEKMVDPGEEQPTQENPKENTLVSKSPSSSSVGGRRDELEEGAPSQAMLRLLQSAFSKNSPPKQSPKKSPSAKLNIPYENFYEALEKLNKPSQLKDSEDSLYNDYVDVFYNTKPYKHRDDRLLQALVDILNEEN

Assay [12] addresses T2, Furin (recombinant, truncated) (mouse), ….
Assay [13] has as its target T1, PC2, P16519.
For assay [14], the target named is Furin (literature), P09958.
Chain of Furin (literature), P09958 (P09958 108-715): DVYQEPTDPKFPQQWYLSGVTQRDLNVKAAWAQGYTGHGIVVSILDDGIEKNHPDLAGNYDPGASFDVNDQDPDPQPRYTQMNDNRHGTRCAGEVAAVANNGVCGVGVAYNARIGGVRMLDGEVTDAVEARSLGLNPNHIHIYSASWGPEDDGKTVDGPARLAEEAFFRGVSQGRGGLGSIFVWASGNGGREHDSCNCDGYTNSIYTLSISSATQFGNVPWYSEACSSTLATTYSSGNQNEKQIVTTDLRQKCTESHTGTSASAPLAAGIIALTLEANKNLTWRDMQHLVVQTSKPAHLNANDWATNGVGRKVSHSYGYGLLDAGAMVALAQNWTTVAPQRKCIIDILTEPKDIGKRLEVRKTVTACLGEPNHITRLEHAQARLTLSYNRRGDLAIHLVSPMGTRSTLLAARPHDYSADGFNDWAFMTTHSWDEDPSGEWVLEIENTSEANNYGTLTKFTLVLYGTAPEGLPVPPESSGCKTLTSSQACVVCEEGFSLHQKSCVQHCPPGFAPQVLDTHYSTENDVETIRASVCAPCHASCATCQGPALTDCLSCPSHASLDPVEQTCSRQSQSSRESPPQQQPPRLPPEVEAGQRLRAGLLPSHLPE
Another assay addresses T5, PC7, Q16549.
T5 chain: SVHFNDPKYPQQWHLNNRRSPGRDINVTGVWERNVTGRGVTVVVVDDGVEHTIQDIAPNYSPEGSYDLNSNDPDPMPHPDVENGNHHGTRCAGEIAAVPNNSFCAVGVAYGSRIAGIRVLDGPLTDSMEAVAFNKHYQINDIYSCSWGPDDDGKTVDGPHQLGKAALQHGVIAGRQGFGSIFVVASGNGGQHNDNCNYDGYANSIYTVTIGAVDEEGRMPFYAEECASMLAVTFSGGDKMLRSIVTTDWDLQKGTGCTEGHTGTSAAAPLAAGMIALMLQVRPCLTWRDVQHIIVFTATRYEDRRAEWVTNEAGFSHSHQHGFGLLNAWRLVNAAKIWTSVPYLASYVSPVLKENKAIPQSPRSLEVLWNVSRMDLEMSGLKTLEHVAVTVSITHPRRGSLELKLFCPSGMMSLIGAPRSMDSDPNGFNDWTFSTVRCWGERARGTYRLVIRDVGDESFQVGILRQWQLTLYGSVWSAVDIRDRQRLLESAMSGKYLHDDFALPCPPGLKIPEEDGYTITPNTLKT

Assay [15] concerns the target T2, Furin (recombinant, truncated) (mouse), ….
Assay [16] has as its target T3, PACE4, P29122.
In assay [17] the target is T4, PC1, P29120.
In assay [18] the target is T1, PC2, P16519.
Assay [19] concerns the target T2, Furin (recombinant, truncated) (mouse), ….
For assay [20], the target named is T1, PC2, P16519.
For assay [21], the target named is T2, Furin (recombinant, truncated) (mouse), ….

B1: Ac-KRKRRR-NH2 (peptide)
chain: Ac-KRKRRR-NH2
For the molecule B1, the Ki in the assay with PC2, P16519 [1] turned out to be 391000 nM; in [2], 1600 nM.

B2: Ac-RHKRRR-NH2 (peptide)
chain: Ac-RHKRRR-NH2
On to B2, for which the inhibition constant Ki with PC2, P16519 [3] came out at 152000 nM; in assay [4], 3400 nM.

B3: Ac-LLRVKR (peptide)
chain: Ac-LLRVKR
In the case of B3, the inhibition constant (Ki) was found to be 3500 nM in [5] and 1300 nM in the assay with PC2, P16519 [6].

B4: Ac-HRKRRR-NH2 (peptide)
chain: Ac-HRKRRR-NH2
On to B4, for which the Ki with PC2, P16519 [7] amounted to 309000 nM; in assay [8], 2100 nM.

B5: Octa-L-arginine (peptide)
chain: RRRRRRRR
Take B5: the inhibition constant Ki in assay [9] worked out at 61 nM; in the assay with PACE4, P29122 [10], 150 nM; with PC1, P29120 [11], 5100 nM.

B6: Ac-LLRVKR-NH2 (peptide)
chain: Ac-LLRVKR-NH2
With B6, the inhibition constant Ki in assay [12] was found to be 3400 nM; with PC2, P16519 [13], 1000 nM.

B7: PC7 propeptide fragment (peptide)
chain: EQRLLKRAKR
Turning to B7, the Ki in [14] was determined as 80 nM; with PC7, Q16549 it was 6 nM.

B8: Nona-L-arginine (peptide)
chain: RRRRRRRRR
As for B8, the Ki in [15] turned out to be 42 nM; in the assay with PACE4, P29122 [16], 110 nM; with PC1, P29120 [17], 12000 nM.

B9: Ac-RRKRRR-NH2 (peptide)
chain: Ac-RRKRRR-NH2
Turning to B9, the Ki with PC2, P16519 [18] stood at 461000 nM; in [19], 1300 nM.

B10: Ac-KHKRRR-NH2 (peptide)
chain: Ac-KHKRRR-NH2
B10: the Ki with PC2, P16519 [20] is 280000 nM; in assay [21] it was 5200 nM.

By Ki is commonly meant a measure of affinity in units of concentration, obtained from inhibition or displacement.
